Source: PMC2114528
Like-named read-outs stand apart in the source and are kept apart here.

Tests used:
[1] = target: ECGF receptor (Mr 150,000 polypeptide) on LEII cells (mouse (endogenous in LEII cells)) (UniProt P16092); assay: radioligand binding
[2] = target: ECGF receptor (Mr 150,000 polypeptide) on LEII cells (mouse (endogenous in LEII cells)) (UniProt P16092); assay: radioligand binding; remark: listed apart in the source

Sequence of UniProt P16092 (P16092 22-822): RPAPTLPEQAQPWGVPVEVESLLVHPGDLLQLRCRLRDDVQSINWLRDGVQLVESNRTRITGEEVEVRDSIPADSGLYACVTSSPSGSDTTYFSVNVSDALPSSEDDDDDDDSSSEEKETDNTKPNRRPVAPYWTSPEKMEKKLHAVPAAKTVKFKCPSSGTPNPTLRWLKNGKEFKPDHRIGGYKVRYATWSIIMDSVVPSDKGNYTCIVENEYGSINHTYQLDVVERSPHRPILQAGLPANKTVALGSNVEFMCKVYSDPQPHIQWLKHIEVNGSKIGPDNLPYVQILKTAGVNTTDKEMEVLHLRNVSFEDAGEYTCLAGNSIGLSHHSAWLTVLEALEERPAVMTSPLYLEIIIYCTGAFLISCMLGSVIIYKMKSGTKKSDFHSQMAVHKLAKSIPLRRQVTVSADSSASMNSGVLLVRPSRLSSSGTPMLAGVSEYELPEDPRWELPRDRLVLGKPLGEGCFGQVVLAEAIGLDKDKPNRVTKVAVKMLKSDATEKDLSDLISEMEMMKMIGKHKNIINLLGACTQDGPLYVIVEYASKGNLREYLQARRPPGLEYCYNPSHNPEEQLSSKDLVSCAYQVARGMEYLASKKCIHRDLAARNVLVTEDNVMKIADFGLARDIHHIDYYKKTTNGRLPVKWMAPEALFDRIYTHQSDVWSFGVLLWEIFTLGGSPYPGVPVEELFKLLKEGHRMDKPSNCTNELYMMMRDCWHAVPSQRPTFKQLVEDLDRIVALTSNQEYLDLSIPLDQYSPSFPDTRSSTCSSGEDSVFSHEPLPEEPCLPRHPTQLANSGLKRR

alpha-endothelial cell growth factor (ligand)
Kd [1]: 0.2 nM
Kd [2]: 0.25 nM
